Laboratory results from the supplement of paper PMC9170038.

Tested on: MS2 coat protein
Assay: apparent KD of MS2 coat protein; designed switch direction (-1 OFF switch, 1 ON switch): 1; higher = weaker reporter binding
Method in brief: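 Stalled E. coli RNA polymerase transcribed designed RNA switches on Illumina chips, which were then titrated with SNAP-549-labelled MS2 coat protein, doubling from 0.7 or 1.5 nM to 3 µM. Steps lasted from 0.8–1.5 h at the lowest concentration to 10–20 min at the highest. The apparent KD is each design's median over clusters of curve-fitted normalised fluorescence.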

[1] = input ligand: microRNA oligo, concentration not stated
[2] = Eterna round: R95, input ligand: FMN 200 uM
[3] = Eterna round: R95, input ligand: microRNA oligo, concentration not stated
[4] = Eterna round: R95, input ligand: none

## CGGAGACGUCAAGGAUAUGCUACCGUUUCGGUAGCAGAAGGUGAUCACAUGAGGAUCACCCAUGUAUGCAUGCGUGAGCGUGCU [JL SSNG1 3.51] (Eterna round: R96, puzzle: Same State NG 1)
Input ligand: FMN 200 uM
  apparent KD of MS2 coat protein: 125 nM
[1]
  apparent KD of MS2 coat protein: 99.2 nM
Input ligand: none
  apparent KD of MS2 coat protein: 21.1 nM

## GGAAUAUUUACAGGAUAUGAUUUGUAAAUUCGAUCAGAAGGGUAGAUGUCUUACACGGUUUGUUACAUGAGGAUCACCCAUGUU [SameState NG1 #11] (Eterna round: R96, puzzle: Same State NG 1)
[1]
  apparent KD of MS2 coat protein: 109 nM

## CAGCACUGUCGAGAGGAUAUGCGGUGAUAGACAUGAGGAUCACCCAUGUUAGCGACAGCAUCACGGCAGAAGGCUCUGCUGCUGC [Soteed Omei mod 40] (puzzle: Same State 2)
[2]
  apparent KD of MS2 coat protein: 43.5 nM
[3]
  apparent KD of MS2 coat protein: 130 nM
[4]
  apparent KD of MS2 coat protein: 349 nM

## UAUUUAAUCAUAGGAUAUAGUGUGAAAUUUGGACUAGAAGGAUGUAACAUGAGGAUCACCCAUGUGGUAAGUGGGACACAGUGU [JR_SSNG1_Sub095] (Eterna round: R96, puzzle: Same State NG 1)
Input ligand: FMN 200 uM
  apparent KD of MS2 coat protein: 164 nM
[1]
  apparent KD of MS2 coat protein: 69.4 nM
Input ligand: none
  apparent KD of MS2 coat protein: 141 nM

## GGGCCAGCUUGUGCUGGGCCUUCGCAUGCACAUGAGGAUCACCCAUGUCGUGUACAUGCUUGGUGCUCGUCUUUAAA [Photon Torp-12] (puzzle: Sensor for hsa-mir-208a)
[2]
  apparent KD of MS2 coat protein: 399 nM
[3]
  apparent KD of MS2 coat protein: 15.7 nM
[4]
  apparent KD of MS2 coat protein: 266 nM

## UAGUGCAUUAGAGGAUAUUCUUACGAAAACGUAAAGACAUGAGGAUCACCCAUGUUGUCACAUGGGAAGAAGGCUGAUGUGCUA [Omei SS(NG)2 Bv3] (Eterna round: R96, puzzle: Same State NG 2)
Input ligand: FMN 200 uM
  apparent KD of MS2 coat protein: 26.3 nM
[1]
  apparent KD of MS2 coat protein: 117 nM
Input ligand: none
  apparent KD of MS2 coat protein: 148 nM

## UAUCAUUACACGAAGGAUAUCGAUAAUUGAACAUGAGGAUCACCCAUGUGAUAUAUUUUACAGUUCGAGAAGGUCGAGGGUGAAG [JR_SS002_Sub705] (Eterna round: R96, puzzle: Same State 2)
[1]
  apparent KD of MS2 coat protein: 28.5 nM

## AAUAAACAUGAGGAUCACCCAUGUGCAACGCGUCAAGGAUAUGCAUCAAACACGCCUUGAGCAGAAGGUGACCGGA [Ladiis] (puzzle: Same State 1)
[2]
  apparent KD of MS2 coat protein: 245 nM
[3]
  apparent KD of MS2 coat protein: 41.7 nM
[4]
  apparent KD of MS2 coat protein: 16.7 nM

## GGAGCCGGCACGGAGGAUAUUCAUAUUAAAACAUGAGGAUCACCCAUGUAGGCCAGAAGGCCUUGGGAGAAGGCCGAUCGGCUCG [Xeonanis - 15] (Eterna round: R96, puzzle: Same State 2)
Input ligand: FMN 200 uM
  apparent KD of MS2 coat protein: 21.2 nM
[1]
  apparent KD of MS2 coat protein: 258 nM
Input ligand: none
  apparent KD of MS2 coat protein: 333 nM

## AAUCGUUUGAUAGGAUAUCGCUAUACAUGAGGAUCACCCAUGUUUACCACGCUGGUUUUUCAUACCGAGAAGGAUUCUGAUGAG [salish99_SSNG02_r04_001] (Eterna round: R96, puzzle: Same State NG 2)
Input ligand: FMN 200 uM
  apparent KD of MS2 coat protein: 72.1 nM
[1]
  apparent KD of MS2 coat protein: 45.7 nM
Input ligand: none
  apparent KD of MS2 coat protein: 53.4 nM

## UUACUCAUGUAAGGAUAUGCAGCCGUUUCGGCUGCAGAAGGUACUAUAAUACAUGAGGAUCACCCAUGUCUCUAUAAUUUAGUG [JL SSNG1 1.30] (Eterna round: R96, puzzle: Same State NG 1)
Input ligand: FMN 200 uM
  apparent KD of MS2 coat protein: 102 nM
[1]
  apparent KD of MS2 coat protein: 38.6 nM
Input ligand: none
  apparent KD of MS2 coat protein: 49.7 nM

## AAGAAACAUGAGGAUCACCCAUGUGUAAAUAUGGGAGGAUAUACAAGGACGUAAGUCAAGGUAGAAGGCCUAAGAA [Mat - Same State 1 - Meechl mod - D137] (Eterna round: R96, puzzle: Same State 1)
Input ligand: FMN 200 uM
  apparent KD of MS2 coat protein: 31 nM
[1]
  apparent KD of MS2 coat protein: 155 nM
Input ligand: none
  apparent KD of MS2 coat protein: 234 nM

## AAACAGCCCAACGGAGGGCCACAUGAGGAUCACCCAUGUACAUAGGAUAUCACGCCAACGAGGCGUGAGAAGGGUGAUUAAAAC [Inesteen] (Eterna round: R96, puzzle: Same State NG 3)
Input ligand: FMN 200 uM
  apparent KD of MS2 coat protein: 18 nM
[1]
  apparent KD of MS2 coat protein: 51.2 nM
Input ligand: none
  apparent KD of MS2 coat protein: 53.9 nM

## CGAUGAUACUUAGGAAGAAGAGUUGAGGUACAUGAGGAUCACCCAUGUCGGAGCUUUUUGCUCGUCAUGAACAGGAA [JR_SHM208a_Sub007] (puzzle: Sensor for hsa-mir-208a)
[2]
  apparent KD of MS2 coat protein: 65.2 nM
[3]
  apparent KD of MS2 coat protein: 34.8 nM
[4]
  apparent KD of MS2 coat protein: 79.5 nM

## CUGGAAAACACAGGAUAUACCCGUGAAUCACGGGUAGAAGGGUGAAACAUGAGGAUCACCCAUGUUACCUCCCAAGGGAGGAUU [Zaleisge] (Eterna round: R96, puzzle: Same State NG 1)
Input ligand: FMN 200 uM
  apparent KD of MS2 coat protein: 432 nM
[1]
  apparent KD of MS2 coat protein: 518 nM
Input ligand: none
  apparent KD of MS2 coat protein: 946 nM

## GUACUACAUGAGGAUCACCCAUGUACAAAAGUACGAGGAUAUGCAUGGACGAAAGUUGGUGCAGAAGGCGUAGUAC [Pin2Pin #3] (puzzle: Same State 1)
[2]
  apparent KD of MS2 coat protein: 20.2 nM
[3]
  apparent KD of MS2 coat protein: 25.9 nM
[4]
  apparent KD of MS2 coat protein: 24 nM

## AUUGCUUACGCAGGAUAUGAUGCGGAAACUGCGUCAGAAGGGUGAAAAGAAUCGUUGCAAGAAGACAUGAGGAUCACCCAUGUC [SameState NG1 #95] (Eterna round: R96, puzzle: Same State NG 1)
Input ligand: FMN 200 uM
  apparent KD of MS2 coat protein: 20 nM
[1]
  apparent KD of MS2 coat protein: 23 nM
Input ligand: none
  apparent KD of MS2 coat protein: 30.5 nM

## AGUAGUUUAACAUGAGGAUCACCCAUGUAUCUAUCUGUAACCUAGGAUAUGGGCGUUGUAUUUAACCAGAAGGAGGAUCGUUUA [JR_SSNG3_Sub047] (Eterna round: R96, puzzle: Same State NG 3)
Input ligand: FMN 200 uM
  apparent KD of MS2 coat protein: 17.8 nM
[1]
  apparent KD of MS2 coat protein: 22.5 nM
Input ligand: none
  apparent KD of MS2 coat protein: 29 nM

## AGUCCAGCCUGAGCUGGACAAAAGCAUGUACAUGAGGAUCACCCAUGUCAUGUACAAGCUUUUUGCUCGUAUUAAAA [Mat - hsa-mir-208a - Mod of JL - D9] (puzzle: Sensor for hsa-mir-208a)
[2]
  apparent KD of MS2 coat protein: 362 nM
[3]
  apparent KD of MS2 coat protein: 15.4 nM
[4]
  apparent KD of MS2 coat protein: 574 nM

## UGGUAACAUGAGGAUCACCCAUGUCAAAUGAAUCGAGGAUAUGGGAAAGGAGAAGAGAAACUAGAAGGCGAAGUUG [Altered State 1-12 - Jieux - Same State 1] (puzzle: Same State 1)
[2]
  apparent KD of MS2 coat protein: 202 nM
[3]
  apparent KD of MS2 coat protein: 191 nM
[4]
  apparent KD of MS2 coat protein: 148 nM

## UUAUACUAGAGAGGAUAUGCAGAGGAUCACCCUGCAGAAGGCUCGUUAGAGAGGAUAUGCAGAGGAUCACCCUGCAGAAGGCUC [pwkr ssNG DX.23] (Eterna round: R96, puzzle: Same State NG 1)
Input ligand: FMN 200 uM
  apparent KD of MS2 coat protein: 17.2 nM
[1]
  apparent KD of MS2 coat protein: 8.62 nM
Input ligand: none
  apparent KD of MS2 coat protein: 15.2 nM

## UCCUUGUGGGUAGGAUAUUUAGGAUAUGCGGAAGACUAAGUCUGUAGGUCACCUAACGCAGAAGGAGAGAAGGACCCUUCAGCA [pwkr ssNG2 2FMN + F9.32] (Eterna round: R96, puzzle: Same State NG 2)
Input ligand: FMN 200 uM
  apparent KD of MS2 coat protein: 284 nM
[1]
  apparent KD of MS2 coat protein: 87.9 nM
Input ligand: none
  apparent KD of MS2 coat protein: 309 nM

## ACAUGAGACAUAGGAUAUGUUGUACCUACAUGUGACAUGAGGAUCACCCAUGUGGUAAGUAUGAGGCAGAAGGAUGAGAUAUGU [Equivalence 40 - Jieux - Same State NG 2] (Eterna round: R96, puzzle: Same State NG 2)
Input ligand: FMN 200 uM
  apparent KD of MS2 coat protein: 50.3 nM
[1]
  apparent KD of MS2 coat protein: 37 nM
Input ligand: none
  apparent KD of MS2 coat protein: 74.1 nM

## UGUUGUUAAUUAGGAUAUGGUCACAUGAGGAUCACCCAUGUAAUGUCGAUGCUAUGUGGAUCUGAUCAGAAGGAAUGGCUAACA [SameState NG2 #96] (Eterna round: R96, puzzle: Same State NG 2)
Input ligand: FMN 200 uM
  apparent KD of MS2 coat protein: 108 nM
[1]
  apparent KD of MS2 coat protein: 105 nM
Input ligand: none
  apparent KD of MS2 coat protein: 137 nM

## AAAGCACAUGAGGAUCACCCAUGUGGAAAUAACACAGGAUAUCCUGCCGAAACUAAGGUGGGAGAAGGGUGACCUA [Iszagece] (puzzle: Same State 1)
[2]
  apparent KD of MS2 coat protein: 147 nM
[3]
  apparent KD of MS2 coat protein: 54 nM
[4]
  apparent KD of MS2 coat protein: 55.9 nM

## GUAAGUUUGAUGCUCGUCUCUCCGUACAGACAUGAGGAUCACCCAUGUAGUCGGGAAGUAGCCCGGCCAGUAUGGCC [Zaorve] (puzzle: Sensor for hsa-mir-208a)
[2]
  apparent KD of MS2 coat protein: 18.1 nM
[3]
  apparent KD of MS2 coat protein: 22.2 nM
[4]
  apparent KD of MS2 coat protein: 17.7 nM

## GUUACAUGAGGAUCACCCAUGUGUGUGUGGGAGUGAGUGGCUUAGGAUAUCUAUGAUUUUAGUUAAGAGAAGGAGGAUUGUUGU [SS-NG3-LRO06] (Eterna round: R96, puzzle: Same State NG 3)
Input ligand: FMN 200 uM
  apparent KD of MS2 coat protein: 365 nM
[1]
  apparent KD of MS2 coat protein: 322 nM
Input ligand: none
  apparent KD of MS2 coat protein: 380 nM

## UGGCUCAGACUAGGAUAUAUGUGGUCACAUGAGGAUCACCCAUGUCUCGAGCUUCGGCUCGAGGCAUAGAAGGAGUCUGAGCCA [SSNG2/5-D2] (Eterna round: R96, puzzle: Same State NG 2)
Input ligand: FMN 200 uM
  apparent KD of MS2 coat protein: 1540 nM
[1]
  apparent KD of MS2 coat protein: 329 nM
Input ligand: none
  apparent KD of MS2 coat protein: 26.5 nM

## ACCUUGUGGGUAGGAUAUUUAGGAUAUGCGGAAGACUAAGUCUGUAGGUCACCUAACGCAGAAGGAGAGAAGGACCCUUCAGCA [pwkr ssNG2 2FMN + F9.31] (Eterna round: R96, puzzle: Same State NG 2)
Input ligand: FMN 200 uM
  apparent KD of MS2 coat protein: 109 nM
[1]
  apparent KD of MS2 coat protein: 3.66 nM
Input ligand: none
  apparent KD of MS2 coat protein: 4.74 nM

## AUAAGAAACACAGGAUAUACCGUGCUUAACGCGGUAGAAGGGUGGGACAUGAGGAUCACCCAUGUGGUCCGGGCGCCGGACCGC [Erarlaa] (Eterna round: R96, puzzle: Same State NG 1)
Input ligand: FMN 200 uM
  apparent KD of MS2 coat protein: 934 nM
[1]
  apparent KD of MS2 coat protein: 296 nM
Input ligand: none
  apparent KD of MS2 coat protein: 309 nM

## UUUGCAUGACGAGGAUAUCAUUUAUUUCUUGAUUGAGAAGGCGUUCUUUUUCCUACCUAACAUGAGGAUCACCCAUGUGACAGU [JR_SSNG1_Sub049] (Eterna round: R96, puzzle: Same State NG 1)
Input ligand: FMN 200 uM
  apparent KD of MS2 coat protein: 12.7 nM
[1]
  apparent KD of MS2 coat protein: 12 nM
Input ligand: none
  apparent KD of MS2 coat protein: 14 nM
